Here are results for seven molecules from US20240209106A1 (BEIGENE SWITZERLAND, published 2024).

Substitutions are numbered along the chain they refer to. Where two headings read alike, the source gives them in different places.

The target in test [1] is T1, full-length human CD137 (huCD137) (human, UniProt Q07011 24-255).
T1 construct: On transduced Hut78 cells (Hut78/huCD137), transiently on HEK293 cells, or natively on PBMC/T cells; also called TNFRSF9; 4-1BB
Briefly: flow cytometry on Hut78/huCD137 cells.

In test [2] the target is human CD137 ECD-mIgG2a (human). Put plainly: SPR, human CD137 ECD-mIgG2a. On the technique in general: Surface plasmon resonance follows binding to a sensor surface in real time, without labels.
Chain of human CD137 ECD-mIgG2a (human) (chain, as listed by the source limits assumed): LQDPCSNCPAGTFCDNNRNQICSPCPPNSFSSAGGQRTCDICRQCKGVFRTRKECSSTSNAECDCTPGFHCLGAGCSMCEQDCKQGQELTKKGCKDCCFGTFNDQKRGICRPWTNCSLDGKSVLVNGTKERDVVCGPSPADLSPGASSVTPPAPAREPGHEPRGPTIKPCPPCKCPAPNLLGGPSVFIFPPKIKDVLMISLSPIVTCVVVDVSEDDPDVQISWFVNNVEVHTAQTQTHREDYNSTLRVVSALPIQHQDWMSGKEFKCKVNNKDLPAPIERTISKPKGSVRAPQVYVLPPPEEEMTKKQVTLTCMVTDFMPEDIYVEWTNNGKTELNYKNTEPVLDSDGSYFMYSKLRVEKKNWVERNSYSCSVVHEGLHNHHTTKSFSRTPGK
The target of test [3] is human CD137 ECD-mIgG2a (human). Briefly: SPR, antibody captured on anti-human Fc surface; analyte taken as human CD137 ECD-mIgG2a.
The target of test [4] is T2, human CEA on cells (human, UniProt P06731 35-685).
T2 construct: whole, on cells; also called CT26/CEA; MKN45
T2 sequence (looked up): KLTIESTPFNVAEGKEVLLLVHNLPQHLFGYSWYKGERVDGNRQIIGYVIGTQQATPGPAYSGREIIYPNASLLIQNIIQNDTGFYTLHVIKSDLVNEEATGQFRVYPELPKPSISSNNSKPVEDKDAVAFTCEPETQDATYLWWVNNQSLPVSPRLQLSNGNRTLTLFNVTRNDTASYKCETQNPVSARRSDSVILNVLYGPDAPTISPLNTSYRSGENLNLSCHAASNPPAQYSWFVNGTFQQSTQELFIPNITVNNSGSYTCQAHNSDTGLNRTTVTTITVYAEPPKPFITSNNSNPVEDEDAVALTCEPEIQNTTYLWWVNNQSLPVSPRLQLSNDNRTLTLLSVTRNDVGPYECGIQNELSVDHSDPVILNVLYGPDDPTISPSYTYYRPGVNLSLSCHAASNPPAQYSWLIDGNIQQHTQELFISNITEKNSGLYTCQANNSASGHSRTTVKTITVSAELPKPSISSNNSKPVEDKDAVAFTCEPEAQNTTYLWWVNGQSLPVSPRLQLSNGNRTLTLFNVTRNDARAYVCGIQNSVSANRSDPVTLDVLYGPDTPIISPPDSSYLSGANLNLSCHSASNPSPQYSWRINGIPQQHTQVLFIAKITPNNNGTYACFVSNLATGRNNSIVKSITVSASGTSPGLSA
Put plainly: flow cytometry on CT26/CEA cells. (In flow cytometry, cells or beads pass a laser one at a time.)

Test [5] addresses T1, full-length human CD137 (huCD137). Put plainly: cell-based or functional assay.
Test [6] has the same target. Put plainly: cell-based or functional assay. The source holds these as a separate data set.
For test [7], the target named is human CD137 ECD-mIgG2a (human). Briefly: SPR (BIAcore T-200): antibody captured on anti-human IgG (Fc) CM5 chip, human CD137 ECD-mIgG2a as analyte, 1:1 Langmuir fit.
Experimental: Characterization of anti-huCD137 VH domain antibodies were made by SPR assays using BIAcore™ T-200 (GE Life Sciences). Briefly, anti-human IgG (Fc) antibody was immobilized on an activated CM5 biosensor chip (Cat.: BR100839, GE Life Sciences). Anti-huCD137 domain antibodies were flowed over the chip surface and captured by anti-human IgG (Fc) antibody. […] The equilibrium dissociation constant (KD) was calculated as the ratio koff/kₒₙ.
The target of test [8] is human CD137 ECD-mIgG2a (human). Briefly: SPR, multispecific antibody captured on anti-human IgG Fc chip, human CD137 ECD-mIgG2a flowed over.
Experimental: Briefly, anti-human IgG (Fc) antibody was immobilized on an activated CM5 biosensor chip (Cat.: BR100839, GE Life Sciences). Anti-huCD137 monoclonal antibodies or multispecific antibodies were flown through the chip surface and captured by anti-human IgG (Fc) antibody. […] The equilibrium dissociation constant (KD)) was calculated as the ratio koff/kₒₙ.
For test [9], the target named is T1, full-length human CD137 (huCD137). Briefly: flow cytometry on Hut78/huCD137 cells. The source holds these as a separate data set.
Text: (§1) Cell fluorescence was quantified using a flow cytometer (Guava easyCyte™ 8HT, Merck-Millipore, USA).
The target in test [10] is T2, human CEA on cells. Briefly: flow cytometry on CT26/CEA cells. This is another data set of the same source.
Text: as §1
Test [11] has as its target human CD137 ECD-mIgG2a (human). Briefly: SPR, human CD137 ECD-mIgG2a. The source holds these as a separate data set.
The target of test [12] is T1, full-length human CD137 (huCD137). Put plainly: flow cytometry on Hut78/huCD137 cells. This is another data set of the same source.
Test [13] shares this target. Put plainly: flow cytometry ligand competition on Hut78/huCD137: BGA-4712 (VH-Fc) in the presence of serially diluted human CD137 ligand-mIgG2a, bound BGA-4712 detected with anti-hu IgG Fc; competitor: BGA-4712 [panel C].
Text: Cell fluorescence was quantified using a flow cytometer (Guava easyCyte™ 8HT, Merck-Millipore, USA). Ligand competition was also applied in a flow cytometry based assay.
In test [14] the target is human CD137 ECD-mIgG2a (human). Briefly: competition ELISA on coated human CD137 ECD-mIgG2a: BGA-5623 (IgG4) in the presence of serially diluted human CD137 ligand ECD-mIgG2a, bound antibody detected with HRP anti-human IgG; competitor: BGA-5623 (IgG4). A general note: In an ELISA, binding on a coated surface is turned into a signal by an enzyme label.

T1 sequence (Q07011 24-255 limits assumed): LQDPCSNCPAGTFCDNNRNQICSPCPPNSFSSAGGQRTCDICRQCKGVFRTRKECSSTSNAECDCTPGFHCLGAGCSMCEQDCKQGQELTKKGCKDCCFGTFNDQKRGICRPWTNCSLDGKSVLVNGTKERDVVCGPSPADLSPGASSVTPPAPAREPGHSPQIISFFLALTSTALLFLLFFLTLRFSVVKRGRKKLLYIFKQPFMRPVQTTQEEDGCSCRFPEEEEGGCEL

B1: A-CD137×CEA (bispecific antibody, human IgG1, kappa)
heavy: QVQLVQSGAEVKKPGASVKVSCKASGYIFTSYYLHWVRQAPGQGLEWIGYINPQTGKTSYAQKFQGRVTMTRDTSTSTVYMELSSLRSEDTAVYYCAREYGNYNYPLDYWGQGTLVTVSSASTKGPSVFPLAPSSKSTSGGTAALGCLVKDYFPEPVTVSWNSGALTSGVHTFPAVLQSSGLYSLSSVVTVPSSSLGTQTYICNVNHKPSNTKVDKKVEPKSCDKTHTCPPCPAPPAAGPSVFLFPPKPKDTLMISRTPEVTCVVVDVSHEDPEVKFNWYVDGVEVHNAKTKPREEQYNSTYRVVSVLTVLHQDWLNGKEYKCKVSNKALAAPIEKTISKAKGQPREPQVYTLPPSREEMTKNQVSLTCLVKGFYPSDIAVEWESNGQPENNYKTTPPVLDSDGSFFLYSKLTVDKSRWQQGNVFSCSVMHEALHNHYTQKSLSLSPGKGGGGSEVQLLESGGGLVQPGGSLRLSCAASGFMLSAEDVGWVRQAPGKGLEWVSAILDFGGSTYYADSVKGRFTISRDNSKNTLYLQMNSLRAEDTAVYYCARVVYHAGGGVTFDYWGQGTLVTVSS
light: DIQMTQSPSSLSASVGDRVTITCRASENQYGYLAWYQQKPGKVPKLLIYNYKNLVEGVPSRFSGSGSGTDFTLTISSLQPEDVATYYCQHHLGTPYTFGQGTKVEIKRTVAAPSVFIFPPSDEQLKSGTASVVCLLNNFYPREAKVQWKVDNALQSGNSQESVTEQDSKDSTYSLSSTLTLSKADYEKHKVYACEVTHQGLSSPVTKSFNRGEC
notes: Symmetric IgG-like; inert Fc; also called Format A
B1: the EC50 in test [1] was 0.57 µg/mL; in the test with human CEA on cells [4], 0.75 µg/mL. Besides, the Kd in the test with human CD137 ECD-mIgG2a [2] and in the test with human CD137 ECD-mIgG2a [3] was 360 nM in each case. For the same molecule, in the test with human CD137 ECD-mIgG2a [3], the koff turned out to be 0.00215 s⁻¹. The kon with human CD137 ECD-mIgG2a [3] is 5970 M⁻¹ s⁻¹.

B2: D-CD137×CEA (bispecific antibody, human IgG1, kappa)
heavy: EVQLLESGGGLVQPGGSLRLSCAASGFMLSAEDVGWVRQAPGKGLEWVSAILDFGGSTYYADSVKGRFTISRDNSKNTLYLQMNSLRAEDTAVYYCARVVYHAGGGVTFDYWGQGTLVTVSSSGGGGSQVQLVQSGAEVKKPGASVKVSCKASGYIFTSYYLHWVRQAPGQGLEWIGYINPQTGKTSYAQKFQGRVTMTRDTSTSTVYMELSSLRSEDTAVYYCAREYGNYNYPLDYWGQGTLVTVSSASTKGPSVFPLAPSSKSTSGGTAALGCLVKDYFPEPVTVSWNSGALTSGVHTFPAVLQSSGLYSLSSVVTVPSSSLGTQTYICNVNHKPSNTKVDKKVEPKSCDKTHTCPPCPAPPAAGPSVFLFPPKPKDTLMISRTPEVTCVVVDVSHEDPEVKFNWYVDGVEVHNAKTKPREEQYNSTYRVVSVLTVLHQDWLNGKEYKCKVSNKALAAPIEKTISKAKGQPREPQVYTLPPSREEMTKNQVSLTCLVKGFYPSDIAVEWESNGQPENNYKTTPPVLDSDGSFFLYSKLTVDKSRWQQGNVFSCSVMHEALHNHYTQKSLSLSPGK
light: B1 light
notes: Symmetric IgG-like; also called Format D
Regarding B2, the EC50 in test [1] stood at 2.28 µg/mL; with human CEA on cells [4], 3.78 µg/mL. This molecule also had a Kd with human CD137 ECD-mIgG2a [2] of 78 nM.

B3: Format A-BGA-5623 (bispecific antibody, human IgG1, kappa)
heavy: B1 heavy with M482T, L483V, F508K, D516E, S529A, N538S, V553I, Y565T, W566R, L571Q
light: B1 light
notes: Module ratio 2:2, inert Fc
For the molecule B3, in test [5], the “Functions EC50(ug/ml), PBMC based cytokine release assay” value (from here on “Functions EC50(ug/ml)”) came to 0.341 µg/mL and the “Functions Top, PBMC based cytokine release assay” value (“Functions Top” below) was found to be 2510. Further, the “Functional assay EC50 (ug/ml), in vitro CD137 activation (PBMC cytokine release)” value in [6] was found to be 0.31 µg/mL. For the same molecule, in the test with human CD137 ECD-mIgG2a [7], the Kd came to 111 nM, the koff stood at 0.0029 s⁻¹ and the kon amounted to 26100 M⁻¹ s⁻¹. The same molecule showed a Kd with human CD137 ECD-mIgG2a [8] of 94.8 nM. For the same molecule, the EC50 in [9] turned out to be 0.38 µg/mL.

B4: Format A - BGA-3386 (bispecific antibody, human IgG1, kappa)
heavy: B1 heavy with M482T, L483V, F508K, D516E, S529A, N538S, V553I, Y565T
light: B1 light
notes: Light chain by the description of Format A
Consider B4, for which, in test [5], the “Functions EC50(ug/ml)” value came out at 0.0768 µg/mL and the “Functions Top” value turned out to be 1950. In addition, a half-maximal effect with human CEA on cells [10] (EC50) was put at 0.21 µg/mL. In the test with human CD137 ECD-mIgG2a [7], this molecule displayed a Kd of 21.4 nM, a koff of 0.000953 s⁻¹ and a kon of 44600 M⁻¹ s⁻¹. In the test with human CD137 ECD-mIgG2a [8], this molecule gave a Kd of 21.4 nM. This molecule yielded an EC50 in [9] of 0.21 µg/mL.

B5: Format A - BGA-9442 (bispecific antibody, human IgG1, kappa)
heavy: B1 heavy with M482T, L483I, F508S, D516E, S529A, N538S, V553Y, Y565L, W566R, L571Q
light: B1 light
notes: as for B4
B5: in test [5], the “Functions EC50(ug/ml)” value was determined as 0.233 µg/mL and the “Functions Top” value was 1720. A half-maximal effect with human CEA on cells [10] (EC50) was put at 0.5 µg/mL. In the test with human CD137 ECD-mIgG2a [7], this molecule showed a Kd of 151 nM, a koff of 0.00604 s⁻¹ and a kon of 39900 M⁻¹ s⁻¹. Besides, binding in the test with human CD137 ECD-mIgG2a [8] was put at a Kd of 164 nM. The molecule further came in with an EC50 in [9] of 0.5 µg/mL.

B6: Format A-BGA-7556 (bispecific antibody, human IgG1, kappa)
heavy: B1 heavy with M482T, D516E, S529A, N538S, W566R, L571Q
light: B1 light
notes: Light chain by the description of Format A; also called BGA-7556 in Format A-CD137 × CEA
As to B6, the Kd with human CD137 ECD-mIgG2a [11] came to 669 nM; with human CD137 ECD-mIgG2a [8], 649 nM. The molecule also gave an EC50 in test [12] of 3.23 µg/mL.

B7: human CD137 ligand-mIgG2a (Fc fusion)
chain: EPRGPTIKPCPPCKCPAPNLLGGPSVFIFPPKIKDVLMISLSPIVTCVVVDVSEDDPDVQISWFVNNVEVHTAQTQTHREDYNSTLRVVSALPIQHQDWMSGKEFKCKVNNKDLPAPIERTISKPKGSVRAPQVYVLPPPEEEMTKKQVTLTCMVTDFMPEDIYVEWTNNGKTELNYKNTEPVLDSDGSYFMYSKLRVEKKNWVERNSYSCSVVHEGLHNHHTTKSFSRTPGKGGGGSREGPELSPDDPAGLLDLRQGMFAQLVAQNVLLIDGPLSWYSDPGLAGVSLTGGLSYKEDTKELVVAKAGVYYVFFQLELRRVVAGEGSGSVSLALHLQPLRSAAGAAALALTVDLPPASSEARNSAFGFQGRLLHLSAGQRLGVHLHTEARARHAWQLTQGATVLGLFRVTPEIPAGLPSPRSE
notes: also called human CD137 ligand ECD-mIgG2a; huCD137 ligand
Consider B7, for which the IC50 in test [13] worked out at 0.42 µg/mL. The “IC50 (read off the curve)” value with human CD137 ECD-mIgG2a [14] was approximately 1 µg/mL.

As usually defined, the EC50 is the midpoint of the concentration-response curve. Higher therefore signals a less potent agent. Usually Kd stands for the equilibrium constant for the complex coming apart. Read a high Kd as lower affinity. The term koff denotes the rate constant with which the complex falls apart. One may read the kon as the rate constant with which the complex forms. Low readings indicate slower complex formation, high ones faster complex formation. Usually IC50 stands for the concentration that inhibits the measured activity by half.
